Data: patent US20040259795A1

Columns and labels:
[1] = target: soluble recombinant human CD14 (rHu-LAIT) (human) (UniProt P08571); assay: cell-based or functional assay
[2] = target: soluble recombinant bovine CD14 (rBo-LAIT) (bovine) (UniProt Q95122); assay: cell-based or functional assay
Chain of UniProt Q95122 (Q95122 21-373 S209T limits assumed): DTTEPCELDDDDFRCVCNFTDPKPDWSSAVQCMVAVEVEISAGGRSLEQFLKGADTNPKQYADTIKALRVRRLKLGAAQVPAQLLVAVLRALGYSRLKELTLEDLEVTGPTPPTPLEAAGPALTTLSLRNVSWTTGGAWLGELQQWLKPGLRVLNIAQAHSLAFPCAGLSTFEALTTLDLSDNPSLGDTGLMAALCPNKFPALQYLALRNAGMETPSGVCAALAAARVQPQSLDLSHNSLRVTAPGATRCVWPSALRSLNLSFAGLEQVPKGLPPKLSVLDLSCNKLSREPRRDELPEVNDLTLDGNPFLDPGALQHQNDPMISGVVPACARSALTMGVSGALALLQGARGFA

Chain of UniProt P08571 (P08571 20-345 C187Y limits assumed): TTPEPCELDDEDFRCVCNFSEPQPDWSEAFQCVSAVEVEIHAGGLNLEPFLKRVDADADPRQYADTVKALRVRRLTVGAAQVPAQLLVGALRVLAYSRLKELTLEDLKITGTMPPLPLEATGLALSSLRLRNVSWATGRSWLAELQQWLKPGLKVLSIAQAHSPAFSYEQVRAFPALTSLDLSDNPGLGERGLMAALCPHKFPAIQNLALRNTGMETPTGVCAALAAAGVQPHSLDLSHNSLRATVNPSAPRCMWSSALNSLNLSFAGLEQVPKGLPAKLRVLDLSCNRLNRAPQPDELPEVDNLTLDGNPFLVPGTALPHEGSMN

IgG2b isotype non-specific mAb OX40 (antibody)
< 15%: inhibition of B cell activation (3H-TdR uptake, percent of response without mAb) [1] | inhibition of B cell activation (3H-TdR uptake, percent of response without mAb) [2] | inhibition of induction of mIg+ 70Z/3 cells (flow cytometry) [2]
